In patent publication US9333240B2, “Compounds for improving nutritional status, cognition and survival” (YISSUM RESEARCH DEVELOPMENT COMPANY OF THE HEBREW …, priority 2005, dated 2016):
Entries after “also recorded” stand apart in the source; their conditions may differ.

What was measured:
[1] = test system: norepinephrine and dopamine in the hippocampus; assay: Hippocampal catecholamine measurements (HPLC-ECD); assay type: in vivo, mice; details: 1 mg/kg leptin daily
Experimental: Control mice received food ad-libitum. Diet-restricted mice received a diet of 57 kCal/week/mouse (2.16 g/day/mouse) as 60% of the requirement, or 38 kCal/week/mouse (1.44 g/day/mouse) for 40%/DR. DR was carried out for 10 days. Behavioral test was performed using the eight-arm spatial maze during the second week of experiment. During the behavioral tests, half of the animals in each group were injected intraperitoneally (i.p) with AICAR (1-2 mM equal to 258-516 mg/kg) or leptin (1 mg/kg) and the other half with saline. Mice were sacrificed by decapitation after the behavioral tests and the hippocampi were frozen at -70° C. Catecholamines were measured as described previously ([…] et al (1996), Brain Res. 732, 133-144. The assays for dopamine and NE were performed by HPLC separation and detection using HPLC-ECD. Values are presented as a concentration (ng/mg tissue).

AMPK = assay: Hippocampal AMPK phosphorylation by immunoblotting; assay type: in vivo; details: 40% diet restricted mice, 1 mg/kg leptin for 72 h
Experimental: Total hippocampal Protein was extracted using TriFast reagent. Aliquots of the clarified lysates containing […] were denatured in Laemmli sample buffer (6% SDS 30%, glycerol, 0.02% bromophenol blue, 200 mM Tris-HCl (pH 6.8), and 250 mM-mercaptoethanol, at 95° C. for 5 min. The samples were resolved by SDS-PAGE (10% acrylamide), and blotted onto nitrocellulose membrane. Non-specific binding in a Western blot analysis was prevented by immersing the membranes in blocking buffer (5% nonfat dry milk in Tris-buffer saline-Tween 20 (TBS-T)), for 2 h at room temperature. The membranes were then exposed to the indicated antibodies diluted 1:1000 for 1 h at room temperature. AMPK, phospho-AMPK and PARP were obtained from Cell Signaling. Bax, bcl-2 and actin were from Santa Cruz Biotechnology Inc. (Santa Cruz, Calif.). The blots were rinsed in TBS-T and then incubated with horseradish peroxidase-conjugated goat anti-mouse antibodies 1:10,000 for 1 h at room temperature. Antibody-antigen complexes were visualized by detecting enhanced chemiluminescence with X-ray film.
Leptin is a key hormone in the regulation of energy balance and is known to modulate AMPK activity in other systems^15,16. The manner by which leptin may interact with AMPK in modulating brain function was further investigated. Leptin was analyzed functionality under different degrees of diet restriction. […]

mice [2] = assay: Morris Water Maze in diet-restricted mice; assay type: in vivo; details: leptin 1 mg/kg daily; data not shown
Experimental: The effects of leptin administration (restoration) on neural function in diet-restricted mice was investigated. Mice were assigned at random to 4 groups. The groups were kept under ad libitum or DR to 40% for 10 days and injected daily with either 1 mg/kg leptin or saline for 5 days during the second week. […] Cognitive performance improvement was also observed in the Morris Water Maze (data not shown). Then the effects on the concentrations of NE and dopamine in the hippocampus were evaluated. […] To elucidate the cellular mechanisms involved in leptin effects, proteins associated with apoptosis were determined by immunoblotting. Leptin induced up-regulation of bcl-2 while reducing Bax levels. […] The anti-apoptotic effect of leptin was further confirmed by detection of activated caspase-3 expression as ?of apoptotic cell death. Activated caspase-3 could not be detected in the hippocampi of control animals.

activated caspase-3 = assay: Activated caspase-3 immunohistochemistry in hippocampal sections; assay type: in vivo, mice; details: 40% DR, leptin 1 mg/kg
Experimental: Mice were perfused intracardially with 4% paraformaldehyde in PBS. Their brains were removed, fixed further in the same solution. […] sections, cut on the same day, were de-waxed and hydrated through graded ethanols, cooked in 25 mM citrate buffer pH 6.0 in a pressure cooker at […] for 3 min (decloaking chamber, Biocare Medical), transferred into boiling deinoized water and left to cool down for 20 min. After 5 min treatment in 3% H2O2, slides were incubated with rabbit polyclonal activated caspase-3 antibody diluted 1:100 in CAS-Block (Zymed) for 3 h at room temperature, washed three times with Optimax (Biogenex), incubated for 30 min with anti rabbit Envision_(DAKO) and developed with DAB for 15 min.
The effects of leptin administration (restoration) on neural function in diet-restricted mice was investigated. Mice were assigned at random to 4 groups. The groups were kept under ad libitum or DR to 40% for 10 days and injected daily with either 1 mg/kg leptin or saline for 5 days during the second week. […] Then the effects on the concentrations of NE and dopamine in the hippocampus were evaluated. […] To elucidate the cellular mechanisms involved in leptin effects, proteins associated with apoptosis were determined by immunoblotting. […] Activated caspase-3 could not be detected in the hippocampi of control animals.

Cultured cardiomyocytes [3] = assay: Cardiomyocyte viability after glucose deprivation (WST); assay type: cell-based; details: glucose deprivation for 1, 3, 6 h
Experimental: Cultured cardiomyocytes were exposed to glucose deprivation for 1, 3, 6 h and were treated with Leptin as described above. Cell viability was analyzed by WST.

AKT = AKT phosphorylation in glucose-deprived cardiomyocytes; assay type: cell-based; details: glucose deprivation for 1, 3, 6 h
Experimental: Cultured cardiomyocytes exposed to glucose deprivation for 1, 3, 6 h were treated with Leptin. Stat-3 phosphorylation (A) and AKT phosphorylation (measure for cell survival and cardioroprotection) were measured by protein analysis.

Cultured cardiomyocytes [4] = assay: Apoptosis of glucose-deprived cardiomyocytes by FACS; assay type: cell-based; details: glucose deprived condition for 1, 2, 6 h, 1 ug/ml Leptin
Experimental: In another experiment cultured cardiomyocytes exposed to glucose deprived condition for 1, 2, 6 h were treated with 1 ug/ml Leptin. Apoptotic cell death was detected by FACS analysis.

mice [5] = assay: Eight-arm maze in TAA model of hepatic encephalopathy; assay type: in vivo; details: TAA treated mice, 1 mg/kg Leptin daily for 5 days
Experimental: FIG. 11. […] Mice were treated with TAA, then 1 mg/kg Leptin was administered daily for 5 days. Cognitive function was evaluated in the eight arm maze.
The animals were placed in an eight-arm maze, which is a scaled-down version of that developed for rats (Randt et al, (1971) Science 172, 489-499; Ziv et al (1994) Neuroscience Lett, 170, 136-140). We used water deprivation achieved by limiting water consumption overnight and a reward of 50 μl of water presented at the end of each arm. The mice were tested until they made entries into all eight arms or until they completed 24 entries, whichever came first. […] Maze performance was calculated each day for five consecutive days. Results were presented as area under the curve (AUC) utilizing the formula: (day 2+day 3+day 4+day 5)−4*(day 1).

B1: leptin: Murine leptin provided by A. Gertler; adipokine hormone, full leptin is a 146 amino acid sequence (protein, UniProt P41160 22-167, looked up)
Leptin: VPIQKVQDDTKTLIKTIVTRINDISHTQSVSAKQRVTGLDFIPGLHPILSLSKMDQTLAVYQQVLTSLPSQNVLQIANDLENLRDLLHLLAFSKSCSLPQTSGLQKPESLDGVLEASLYSTEVVALSRLQGSLQDILQQLDVSPEC
- dopamine concentrations in the hippocampus ([1]; AL group): down-regulated
- dopamine concentrations in the hippocampus ([1]; DR group (40%)): did not induce any significant reduction
- NE concentration in the hippocampus ([1]; DR to 40%): reversed the reduction of NE
- hippocampal AMPK phosphorylation (AMPK): significantly reduced
- cognitive performance in the Morris Water Maze (mice [2]): improvement
- activated caspase-3 immunoreactivity (activated caspase-3): significantly reduced the immunoreactivity
- cell viability (WST) (Cultured cardiomyocytes [3]): increased significantly the viability; also recorded: induces survival
- cell survival as measured by AKT phosphorylation (AKT): improved the cell survival
- apoptotic cell death (FACS) (Cultured cardiomyocytes [4]): reduced apoptotic death
- apoptotic cell death (FACS) (Cultured cardiomyocytes [4]; listed as Leptin): decreased apoptosis
- cognitive function in the eight arm maze (mice [5]): reversed impaired cognitive function
